Measurements from paper PMC6477676, “Staufen2-mediated RNA recognition and localization requires combinatorial action of multiple domains”.
Residue numbers refer to the chain shown, from its start.

T1: mStau2 dsRBD1 (Mus musculus, UniProt Q8CJ67 8-75)
T1 sequence: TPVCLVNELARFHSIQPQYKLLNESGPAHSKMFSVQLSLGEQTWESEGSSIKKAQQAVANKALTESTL

T2: mStau2 dsRBD1-4 F40A H169A (Mus musculus, UniProt Q8CJ67 8-375, F40A;H169A)
T2 sequence: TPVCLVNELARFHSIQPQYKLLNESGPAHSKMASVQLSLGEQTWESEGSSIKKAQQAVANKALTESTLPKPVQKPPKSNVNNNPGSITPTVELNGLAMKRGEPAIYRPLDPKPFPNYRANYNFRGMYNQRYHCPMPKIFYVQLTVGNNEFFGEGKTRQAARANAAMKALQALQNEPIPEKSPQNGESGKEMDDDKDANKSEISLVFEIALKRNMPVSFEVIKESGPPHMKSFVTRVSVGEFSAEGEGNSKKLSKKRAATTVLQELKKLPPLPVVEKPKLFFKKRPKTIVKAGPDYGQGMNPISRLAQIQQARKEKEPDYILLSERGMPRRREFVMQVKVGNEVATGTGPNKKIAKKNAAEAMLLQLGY

T3: mStau2 dsRBD1-2 F40A F157A (Mus musculus, UniProt Q8CJ67 8-181, F40A;F157A)
T3 sequence: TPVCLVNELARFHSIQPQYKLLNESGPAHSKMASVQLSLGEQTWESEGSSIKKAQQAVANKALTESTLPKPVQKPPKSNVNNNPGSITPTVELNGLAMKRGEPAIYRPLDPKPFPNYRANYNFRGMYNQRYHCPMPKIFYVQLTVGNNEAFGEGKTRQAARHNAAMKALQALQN

T4: mStau2 dsRBD1-2 F40A H169A (Mus musculus, UniProt Q8CJ67 8-181, F40A;H169A)
T4 sequence: T3 sequence with A150F, H162A

T5: mStau2 dsRBD1-4 (Mus musculus, UniProt Q8CJ67 8-375)
T5 sequence: T2 sequence with A33F, A162H

B1: SRS* (SRS3) (structured_RNA)
RNA: GGUAUGUGUGAAUGUGCAUGAAUAUAUAUAUAUAUGCAUAUAUAUAUUUGUAUAUGUUCACACAUG

How the values were obtained:
mStau2 dsRBD1 = target: T1, mStau2 dsRBD1; experiment: SPR; up to 1 uM; SPR: HBS-EP (10 mM HEPES pH 7.4, 150 mM NaCl, 3 mM EDTA, 0.005% P20); EMSA: 5 nM RNA, protein buffer (40 mM Bis-Tris pH 7, 150 mM NaCl, 2 mM DTT presumed), 4% glycerol, 30 ug/mL yeast tRNA, RT; NMR: 150 mM NaCl, 20 mM Na phosphate pH 7.0, 5 mM DTT, 298 K; conditions: protein: recombinant; label: 5' 32P (EMSA); biotin (SPR); imperfect hairpin, 26 bp with two bulges
[1] = target: T2, mStau2 dsRBD1-4 F40A H169A; experiment: SPR; two-site, transient; KDs resemble dsRBD3-4; SPR: HBS-EP (10 mM HEPES pH 7.4, 150 mM NaCl, 3 mM EDTA, 0.005% P20); EMSA: 5 nM RNA, protein buffer (40 mM Bis-Tris pH 7, 150 mM NaCl, 2 mM DTT presumed), 4% glycerol, 30 ug/mL yeast tRNA, RT; NMR: 150 mM NaCl, 20 mM Na phosphate pH 7.0, 5 mM DTT, 298 K; conditions: protein: recombinant, label: 5' 32P (EMSA), biotin (SPR)
[2] = target: T3, mStau2 dsRBD1-2 F40A F157A; experiment: SPR; no fit; SPR: HBS-EP (10 mM HEPES pH 7.4, 150 mM NaCl, 3 mM EDTA, 0.005% P20); EMSA: 5 nM RNA, protein buffer (40 mM Bis-Tris pH 7, 150 mM NaCl, 2 mM DTT presumed), 4% glycerol, 30 ug/mL yeast tRNA, RT; NMR: 150 mM NaCl, 20 mM Na phosphate pH 7.0, 5 mM DTT, 298 K; conditions: protein: recombinant, label: 5' 32P (EMSA), biotin (SPR)
[3] = target: T4, mStau2 dsRBD1-2 F40A H169A; experiment: as above; conditions: protein: recombinant, label: 5' 32P (EMSA), biotin (SPR)
mStau2 dsRBD1-4 = target: T5, mStau2 dsRBD1-4; experiment: SPR; Hill n 1.7; text says 330 nM; SPR: HBS-EP (10 mM HEPES pH 7.4, 150 mM NaCl, 3 mM EDTA, 0.005% P20); EMSA: 5 nM RNA, protein buffer (40 mM Bis-Tris pH 7, 150 mM NaCl, 2 mM DTT presumed), 4% glycerol, 30 ug/mL yeast tRNA, RT; NMR: 150 mM NaCl, 20 mM Na phosphate pH 7.0, 5 mM DTT, 298 K; conditions: protein: recombinant; tags: HisSUMO removed; label: 5' 32P (EMSA); biotin (SPR); imperfect hairpin, 26 bp with two bulges
[4] = imperfect hairpin, 26 bp with two bulges

Binder | binding result (mStau2 dsRBD1) | binding result [1, 4] | binding result [2, 4] | binding result [3, 4] | Kd (mStau2 dsRBD1-4) [nM] | binding result ([1]; hairpin, 18 bp stem) | binding result ([2]; hairpin, 18 bp stem) | binding result ([3]; hairpin, 18 bp stem)
B1 | no binding | binds | no binding | no binding | 287 ± 127 | – | – | –
GGUAUAUACAUGCACAUGCAAUUUGUGUAUGUGUAUGUAUAUA (structured_RNA) [SRS2+5] | – | – | – | – | – | binds | no binding | no binding
